The numbers were not newly measured in PMC8145179, which cites them from elsewhere.

In the data set the target is Cys215 (UniProt position 215, PVVVHCSAGIG). The settings on record: apo (ligand-free) enzyme.

A word on the pKa: it is the negative logarithm of the acid dissociation constant. In the case of “Protein tyrosine phosphatase 1B (PTP1B) (Homo sapiens (inferred; not stated in the article))”, the pKa is on record as 5.4.
